± gives the standard deviation of the averaged measurements.
Legend:
Saccharomyces cerevisiae [1] = test: protein stability index of tFT-peptide fusion (C-terminal peptide) (PSI (0-1 scale)); higher = more stable (slower turnover)
Protocol: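 MPS profiling in S. cerevisiae of the tFT-X12 degron library: putative degron peptides plus stable controls, 12 aa, fused to the C-terminus of a sfGFP-mCherry timer. Cells are FACS-sorted into 8 mCherry/sfGFP bins and deep-sequenced. PSI runs from 0 (unstable) to 1 (stable). Backgrounds are wild type, das1Δ and doa10Δ at 30 °C, and wild type, das1Δ, cdc34-1 and cdc53-1 at 37 °C; 2-3 technical replicates each.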

Saccharomyces cerevisiae [2] = test: as above; conditions: genetic background: wild type; temperature: 30 C
[3] = genetic background: cdc34-1, temperature: 37 C
[4] = genetic background: cdc53-1, temperature: 37 C
[5] = genetic background: das1 deletion, temperature: 30 C
[6] = genetic background: das1 deletion, temperature: 37 C
[7] = genetic background: doa10 deletion, temperature: 30 C
[8] = genetic background: wild type, temperature: 30 C
[9] = genetic background: wild type, temperature: 37 C
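Further: PSI is a weighted mean of sequencing reads over stability bins, variants kept only with over 10 reads, mCherry proximal and sfGFP distal, peptide attached via GGGS linker.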

| Sequence | protein stability index (Saccharomyces cerevisiae [1]; [3]) | protein stability index (Saccharomyces cerevisiae [1]; [4]) | protein stability index (Saccharomyces cerevisiae [1]; [5]) | protein stability index (Saccharomyces cerevisiae [1]; [6]) | protein stability index (Saccharomyces cerevisiae [1]; [7]) | protein stability index (Saccharomyces cerevisiae [1]; [8]) | protein stability index (Saccharomyces cerevisiae [1]; [9]) | protein stability index (Saccharomyces cerevisiae [2]) |
| --- | --- | --- | --- | --- | --- | --- | --- | --- |
| WVVVKITAHTAT | 0.323 ± 0.028 | 0.38 ± 0.021 | 0.22 ± 0.02 | 0.405 ± 0.018 | 0.185 ± 0.0081 | 0.222 ± 0.021 | 0.4 ± 0.0065 | 0.326 ± 0.016 |
| WYAGIVFTRVWM | 0.54 ± 0.01 | 0.611 ± 0.026 | 0.487 ± 0.015 | 0.654 ± 0.03 | 0.466 ± 0.015 | 0.482 ± 0.02 | 0.622 ± 0.013 | 0.5 ± 0.0095 |
| YAFLWCVFYLSF | 0.228 ± 0.0071 | 0.235 ± 0.03 | 0.222 ± 0.028 | 0.337 ± 0.01 | 0.216 ± 0.0098 | 0.196 ± 0.017 | 0.305 ± 0.0082 | 0.289 ± 0.021 |
| YCCDYFMFVLVV | 0.148 ± 0.0029 | 0.189 ± 0.024 | 0.206 ± 0.044 | 0.3012 ± 0.0022 | 0.184 ± 0.009 | 0.183 ± 0.032 | 0.248 ± 0.01 | 0.255 ± 0.033 |
| YDLRRIGRIGVG | 0.316 ± 0.02 | 0.404 ± 0.012 | 0.348 ± 0.019 | 0.402 ± 0.016 | 0.3542 ± 0.003 | 0.338 ± 0.0099 | 0.381 ± 0.026 | 0.363 ± 0.016 |
| YFIVVSWFLVCW | 0.0981 ± 0.019 | 0.199 ± 0.022 | 0.114 ± 0.029 | 0.218 ± 0.0028 | 0.072 ± 0.017 | 0.121 ± 0.0079 | 0.168 ± 0.029 | 0.184 ± 0.005 |
| YFLFRYIVITVF | 0.0486 ± 0.029 | 0.0672 ± 0.021 | 0.0711 ± 0.025 | 0.135 ± 0.026 | 0.0326 ± 0.015 | 0.0569 ± 0.012 | 0.06947 ± 0.00069 | 0.0865 ± 0.032 |
| YFRKDYRKMAQH | 0.594 ± 0.049 | 0.74478 ± 0.00072 | 0.669 ± 0.06 | 0.7429 ± 0.0026 | 0.17256 ± 0.00013 | 0.163 ± 0.046 | 0.453 ± 0.055 | 0.255 ± 0.15 |
| YGAGDLTKYFIV | 0.637 ± 0.037 | 0.684 ± 0.046 | 0.607 ± 0.0086 | 0.726 ± 0.039 | 0.114 ± 0.0065 | 0.122 ± 0.028 | 0.174 ± 0.034 | 0.106 ± 0.016 |
| YHFRLLVTCCPC | 0.273 ± 0.0031 | 0.325 ± 0.0097 | 0.264 ± 0.016 | 0.38 ± 0.01 | 0.225 ± 0.0037 | 0.257 ± 0.0088 | 0.351 ± 0.015 | 0.321 ± 0.0033 |
| YLCCFSVAFFLG | 0.175 ± 0.0039 | 0.331 ± 0.098 | 0.206 ± 0.039 | 0.3961 ± 0.00067 | 0.131 ± 4.8e-05 | 0.153 ± 0.018 | 0.317 ± 0.024 | 0.257 ± 0.072 |
| YLFDQYDWYKSM | 0.643 ± 0.063 | 0.7663 ± 0.007 | 0.666 ± 0.041 | 0.8049 ± 0.0067 | 0.156 ± 0.0072 | 0.162 ± 0.027 | 0.348 ± 0.02 | 0.368 ± 0.081 |
| YLLTAFLSAFNP | 0.554 ± 0.054 | 0.683 ± 0.018 | 0.543 ± 0.019 | 0.55 ± 0.0074 | 0.529 ± 0.041 | 0.522 ± 0.031 | 0.537 ± 0.02 | 0.495 ± 0.11 |
| YLMVSKMSLRIG | 0.602 ± 0.021 | 0.643 ± 0.0084 | 0.532 ± 0.021 | 0.609 ± 0.017 | 0.296 ± 0.054 | 0.306 ± 0.026 | 0.516 ± 0.025 | 0.401 ± 0.0052 |
| YPGMFLQLVWWI | 0.4297 ± 0.0022 | 0.552 ± 0.036 | 0.433 ± 0.03 | 0.5804 ± 0.0042 | 0.1211 ± 0.0011 | 0.117 ± 0.0026 | 0.126 ± 0.0019 | 0.176 ± 0.026 |
| YPSASLLPLFSC | 0.594 ± 0.06 | 0.733 ± 0.017 | 0.622 ± 0.014 | 0.748 ± 0.015 | 0.126 ± 0.018 | 0.136 ± 0.017 | 0.184 ± 0.016 | 0.171 ± 0.004 |
| YQFDGLVFLRLS | 0.716 ± 0.02 | 0.724 ± 0.0064 | 0.645 ± 0.014 | 0.774 ± 0.018 | 0.3501 ± 0.0014 | 0.4 ± 0.017 | 0.6515 ± 0.00071 | 0.4808 ± 0.0011 |
| YRFVWRWIPICA | 0.0342 ± 0.01 | 0.0919 ± 0.045 | 0.12 ± 0.038 | 0.116 ± 0.032 | 0.0307 ± 0.0093 | 0.038 ± 0.014 | 0.057 ± 0.026 | 0.0631 ± 0.022 |
| YRWERIYIGLRL | 0.397 ± 0.037 | 0.523 ± 0.036 | 0.49 ± 0.039 | 0.615 ± 0.019 | 0.191 ± 0.008 | 0.188 ± 0.018 | 0.36 ± 0.0093 | 0.291 ± 0.024 |
| YSALHNPPQPVT | 0.665 ± 0.032 | 0.725 ± 0.014 | 0.6556 ± 0.0065 | 0.7216 ± 0.0049 | 0.658 ± 0.014 | 0.658 ± 0.011 | 0.6971 ± 0.0062 | 0.736 ± 0.02 |
| YTLWFLAWGLVF | 0.262 ± 0.036 | 0.308 ± 0.016 | 0.241 ± 0.033 | 0.3865 ± 0.0028 | 0.209 ± 0.011 | 0.22 ± 0.034 | 0.36 ± 0.025 | 0.315 ± 0.023 |
| YWRNYLVLVCKF | 0.836 ± 0.04 | 0.794 ± 0.075 | 0.592 ± 0.023 | 0.778 ± 0.023 | 0.487 ± 0.07 | 0.481 ± 0.046 | 0.613 ± 0.024 | 0.359 ± 0.065 |
| YYLHFRFFIYVF | 0.0536 ± 0.019 | 0.0916 ± 0.0088 | 0.108 ± 0.035 | 0.201 ± 0.0051 | 0.0759 ± 0.019 | 0.0626 ± 0.013 | 0.13 ± 0.0084 | 0.113 ± 0.031 |

— the supplement of paper PMC10724198
